To fix the notation:
B1: SI-79C3 (antibody, human IgG1, kappa, V domains shown)
VH: QVQLQQSGPGLVKPSETLSITCTVSGFSLTNYGVHWIRQAPGKGLEWLGVIWSGGNTDYNTPFTSRFTITKDNSKNQVYFKLRSVRADDTAIYYCARALTYYDYEFAYWGQGTLVTVSS
VL: EIVLTQSPSTLSVSPGERATFSCRASQSIGTNIHWYQQKPGKPPRLLIKYASESISGIPDRFSGSGSGTEFTLTISSVQSEDFAVYYCQQNNNWPTTFGPGTKLTVLR
notes: Humanized version H7 in IgG format; also called H7; humanized H7 mAb
B2: SI-79SF3 (Fc fusion)
chain: EIVMTQSPSTLSASVGDRVIITCRASQSIGTNIHWYQQKPGKAPKLLIYYASESISGIPSRFSGSGSGAEFTLTISSLQPDDFATYYCQQNNNWPTTFGQGTKLTVLGGGGSGGGGSGGGGSGGGGSEVQLVESGGGLVQPGGSLRLSCKVSGFSLTNYGVHWVRQAPGKGLEWVGVIWSGGNTDYNTPFTSRFTISRDTSKNTVYLQMNSLRAEDTAVYYCARALTYYDYEFAYWGQGTLVTVSSGSGGSPVAGPSVFLFPPKPKDTLMISRTPEVTCVVVDVSHEDPEVKFNWYVDGVEVHNAKTKPREEQYASTYRVVSVLTVLHQDWLNGKEYKCKVSNKALPAPIEKTISKAKGQPREPQVYTLPPSRDELTKNQVSLRCHVKGFYPSDIAVEWESNGQPENNYKTTKPVLDSDGSFFLYSTLTVDKSRWQQGNVFSCSVLHEALHNHYTQKSLSLSPGK
notes: also called H1; H1 scFv-monoFc
B3: SI-79SF9 (Fc fusion)
chain: EIVLTQSPSTLSVSPGERVSFSCRASQSIGTNIHWYQQRTGQPPRLLIKYASESISGIPARFSGSGSGTEFTLTITSVQSEDFAVYYCQQNNNWPTTFGQGTKLDIKGGGGSGGGGSGGGGSGGGGSQVQLLQSGPGLVKPSETLSITCTVSGFSLTNYGVHWIRQAPGKGLEWIGVIWSGGNTDYNTPFTSRFTITKDNSKNQVFFKLRSVRAEDTALYYCARALTYYDYEFAYWGQGTLVTVSSGSGGSPVAGPSVFLFPPKPKDTLMISRTPEVTCVVVDVSHEDPEVKFNWYVDGVEVHNAKTKPREEQYASTYRVVSVLTVLHQDWLNGKEYKCKVSNKALPAPIEKTISKAKGQPREPQVYTLPPSRDELTKNQVSLRCHVKGFYPSDIAVEWESNGQPENNYKTTKPVLDSDGSFFLYSTLTVDKSRWQQGNVFSCSVLHEALHNHYTQKSLSLSPGK
notes: also called H6; H6 scFv-monoFc
B4: SI-79SF4 (Fc fusion)
chain: EIVLTQSPSTLSVSPGERATFSCRASQSIGTNIHWYQQKPGKPPRLLIKYASESISGIPDRFSGSGSGTEFTLTISSVQSEDFAVYYCQQNNNWPTTFGPGTKLELKGGGGSGGGGSGGGGSGGGGSQVQLQQSGPGLVKPSETLSITCTVSGFSLTNYGVHWIRQAPGKGLEWLGVIWSGGNTDYNTPFTSRFTITKDNSKNQVYFKLRSVRADDTAIYYCARALTYYDYEFAYWGQGTLVTVSSGSGGSPVAGPSVFLFPPKPKDTLMISRTPEVTCVVVDVSHEDPEVKFNWYVDGVEVHNAKTKPREEQYASTYRVVSVLTVLHQDWLNGKEYKCKVSNKALPAPIEKTISKAKGQPREPQVYTLPPSRDELTKNQVSLRCHVKGFYPSDIAVEWESNGQPENNYKTTKPVLDSDGSFFLYSTLTVDKSRWQQGNVFSCSVLHEALHNHYTQKSLSLSPGK
notes: also called H4; H4 scFv-monoFc
B5: SI-79SF12 (Fc fusion)
chain: B4 chain with T10I, K39R, D60S, S76T, F83I, E143Q, T197S, V212L, D215E
notes: also called H2; H2 scFv-monoFc
B6: SI-79SF6 (Fc fusion)
chain: B4 chain with E105T, L106V, K107L
notes: also called H7; H7 scFv-monoFc
B7: SI-79SF10 (Fc fusion)
chain: EIVLTQSPSILSVSPGERVTFSCRASQSIGTNIHWYQQRPGKPPRLLIKYASESISGIPARFSGSGSGTEFTLTISSVQSEDFATYYCQQNNNWPTTFGPGTKLELKGGGGSGGGGSGGGGSGGGGSQVQLVQSGPGLVKPSQTLSLTCTVSGFSLTNYGVHWIRQAPGKGLEWLGVIWSGGNTDYNTPFTSRFTITKDNSKNQVYFKLRSVRSEDTAVYYCARALTYYDYEFAYWGQGTLVTVSSGSGGSPVAGPSVFLFPPKPKDTLMISRTPEVTCVVVDVSHEDPEVKFNWYVDGVEVHNAKTKPREEQYASTYRVVSVLTVLHQDWLNGKEYKCKVSNKALPAPIEKTISKAKGQPREPQVYTLPPSRDELTKNQVSLRCHVKGFYPSDIAVEWESNGQPENNYKTTKPVLDSDGSFFLYSTLTVDKSRWQQGNVFSCSVLHEALHNHYTQKSLSLSPGK
notes: also called H3; H3 scFv-monoFc
B8: SI-79SF8 (Fc fusion)
chain: DIVLTQSPATLSVSPGERATLSCRASQSIGTNIHWYQQKPGQAPRLLIKYASESISGIPSRFSGSGSGTDFTLTISSVQSEDFAVYYCQQNNNWPTTFGQGTKLEIKGGGGSGGGGSGGGGSGGGGSQVQLQESGPGLVKPSESLSLTCTVSGFSLTNYGVHWVRQPPGKGLEWIGVIWSGGNTDYNTPFTSRVTISKDNSKNQVSLKMNSLTAADTAVYYCARALTYYDYEFAYWGQGTLVTVSSGSGGSPVAGPSVFLFPPKPKDTLMISRTPEVTCVVVDVSHEDPEVKFNWYVDGVEVHNAKTKPREEQYASTYRVVSVLTVLHQDWLNGKEYKCKVSNKALPAPIEKTISKAKGQPREPQVYTLPPSRDELTKNQVSLRCHVKGFYPSDIAVEWESNGQPENNYKTTKPVLDSDGSFFLYSTLTVDKSRWQQGNVFSCSVLHEALHNHYTQKSLSLSPGK
notes: also called H10; H10 scFv-monoFc
B9: SI-79SF13 (Fc fusion)
chain: B8 chain with E105T, I106V, K107L
notes: also called H11; H11 scFv-monoFc
B10: SI-79SF11 (Fc fusion)
chain: EIQLTQSPSTLSVSPGERATFSCRASQSIGTNIHWYQQKTGQPPRLLIKYASESISGIPDRFSGSGSGTEFTLSITSVQSEDFAVYYCQQNNNWPTTFGPGTKLEILGGGGSGGGGSGGGGSGGGGSQVQLLQSGPGLVKPSETLSLTCTVSGFSLTNYGVHWIRQAPGKGLEWIGVIWSGGNTDYNTPFTSRFTISKDNSKNQVYFKLRSLTSEDTAIYYCARALTYYDYEFAYWGQGTLVTVSSGSGGSPVAGPSVFLFPPKPKDTLMISRTPEVTCVVVDVSHEDPEVKFNWYVDGVEVHNAKTKPREEQYASTYRVVSVLTVLHQDWLNGKEYKCKVSNKALPAPIEKTISKAKGQPREPQVYTLPPSRDELTKNQVSLRCHVKGFYPSDIAVEWESNGQPENNYKTTKPVLDSDGSFFLYSTLTVDKSRWQQGNVFSCSVLHEALHNHYTQKSLSLSPGK
notes: also called H5; H5 scFv-monoFc
B11: SI-79SF5 (Fc fusion)
chain: DIVLTQSPSSLSVSPGERVTISCRASQSIGTNIHWYQQKPGQAPRLLIKYASESISGIPSRFSGSGSGTDFTLTISSVESEDFAVYYCQQNNNWPTTFGQGTKLEIKGGGGSGGGGSGGGGSGGGGSQVQLVESGPGLVQPSGSLSLTCTVSGFSLTNYGVHWVRQAPGKGLEWVGVIWSGGNTDYNTPFTSRFTISKDNSKNQVYLKMNSLRAEDTAVYYCARALTYYDYEFAYWGQGTLVTVSSGSGGSPVAGPSVFLFPPKPKDTLMISRTPEVTCVVVDVSHEDPEVKFNWYVDGVEVHNAKTKPREEQYASTYRVVSVLTVLHQDWLNGKEYKCKVSNKALPAPIEKTISKAKGQPREPQVYTLPPSRDELTKNQVSLRCHVKGFYPSDIAVEWESNGQPENNYKTTKPVLDSDGSFFLYSTLTVDKSRWQQGNVFSCSVLHEALHNHYTQKSLSLSPGK
notes: also called H8; H8 scFv-monoFc
B12: SI-79SF7 (Fc fusion)
chain: B11 chain with E105T, I106V, K107L
notes: also called H9; H9 scFv-monoFc

Where a chain is given by its changes, count along the chain named.

For the first experiment, the target named is T1, soluble recombinant extracellular domain of human EGFR (human, UniProt P00533 25-645).
T1 construct: extracellular domain
Put plainly: BLI (Octet), mAb on AHC sensors, soluble EGFR extracellular domain. (In general: In BLI a coated tip is dipped into the sample, and binding shifts an interference pattern.)
Experimental: (§1) Fc-containing protein was captured to anti-human Fc (AHC) sensor tips by loading for 180 seconds at 10 μg/ml. Alternatively, His-tagged proteins were covalently coupled at 10 ug/ml to AR2G tips using manufacturer protocol. After a 60-second baseline step, a 180- to 300-second association phase with serial dilutions (0-200 nM; 1:2.5 dilution factor) or a single 100 nM concentration of purified human EGFR in assay buffer (phosphate-buffered saline containing 0.1% BSA, 0.05% Tween20) was performed, followed by a 300- to 600—second dissociation phase in assay buffer. Regeneration was achieved using 10 mM glycine, pH 1.5. Binding curves were globally fit to a 1:1 model to extract the dissociation constants, KD. Binding kinetics for each protein were assessed in duplicate, with tabulated values reported as average±standard deviation.
One may read the Kd as the equilibrium constant for the complex coming apart. By koff is commonly meant the rate constant with which the complex falls apart. One may read the kon as the second-order rate constant of association. For the molecule B1, the dissociation constant (Kd) was 2.41 nM, the off-rate (koff) came to 0.000812 s⁻¹ and the kon was 337000 M⁻¹ s⁻¹.

The target of another experiment is T1, soluble recombinant extracellular …. Put plainly: BLI (Octet), scFv-monoFc on AHC sensors, serial dilutions of EGFR extracellular domain.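 Also: EGFR analyte titrated 0 to 200 nM, association 180–300 s then dissociation 300–600 s in PBS with 0.1% BSA and 0.05% Tween20, global 1:1 fit, duplicate means.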
Experimental: as §1
(§2) The monoFc domain was used to load proteins onto anti-human Fc (AHC) sensors, followed by binding of scFv to serial dilutions of the extracellular domain of human EGFR.
For the molecule B2, the Kd turned out to be 13.1 nM, the koff was 0.00927 s⁻¹ and the kon was 718000 M⁻¹ s⁻¹.

Regarding B3, the dissociation constant Kd stood at 3.42 nM, the dissociation rate constant (koff) came to 0.00165 s⁻¹ and the on-rate (kon) was 476000 M⁻¹ s⁻¹.

On to B4, for which the equilibrium dissociation constant (Kd) was 3.05 nM, the koff is 0.00139 s⁻¹ and the kon was determined as 450000 M⁻¹ s⁻¹.

B5: the dissociation constant (Kd) came out at 3.08 nM, the koff turned out to be 0.00151 s⁻¹ and the on-rate constant (kon) worked out at 481000 M⁻¹ s⁻¹.

Turning to B6, the Kd was determined as 3.14 nM, the koff worked out at 0.00143 s⁻¹ and the on-rate (kon) is 447000 M⁻¹ s⁻¹.

As for B7, the dissociation constant (Kd) was found to be 3.45 nM, the koff was found to be 0.00177 s⁻¹ and the kon was 504000 M⁻¹ s⁻¹.

On to B8, for which the dissociation constant (Kd) turned out to be 6.77 nM, the off-rate constant (koff) worked out at 0.00458 s⁻¹ and the kon was 665000 M⁻¹ s⁻¹.

Consider B9, for which the Kd turned out to be 6.74 nM, the off-rate (koff) came to 0.00454 s⁻¹ and the on-rate (kon) is 661000 M⁻¹ s⁻¹.

In the case of B10, the Kd stood at 2.27 nM, the koff worked out at 0.0011 s⁻¹ and the on-rate (kon) amounted to 474000 M⁻¹ s⁻¹.

In the case of B11, the Kd came out at 6.79 nM, the koff was determined as 0.00393 s⁻¹ and the on-rate constant (kon) is 571000 M⁻¹ s⁻¹.

Take B12: the dissociation constant (Kd) was determined as 6.92 nM, the koff stood at 0.00395 s⁻¹ and the kon was 563000 M⁻¹ s⁻¹.

The next experiment has the same target. Put plainly: BLI of scFv-monoFc proteins, against wild-type cetuximab scFv-monoFc.
Experimental: as §1, §2
On to B2, for which the “fold decrease in binding affinity” value came to 4 fold.

Take B8: the “fold decrease in binding affinity” value was 2 fold.

In the case of B9, the “fold decrease in binding affinity” value came to 2 fold.

For the molecule B11, the “fold decrease in binding affinity” value was 2 fold.

Consider B12, for which the “fold decrease in binding affinity” value stood at 2 fold.

The values are drawn from patent US20250353917A1 (SYSTIMMUNE, published 2025).
